Results: patent US20250177530A1, “MOLECULES THAT BIND TO ENPP1 POLYPEPTIDES” (UNIVERSITY OF PITTSBURGH - OF THE COMMONWEALTH SYSTEM OF …, priority 2022, published 2025)

Legend:
[1] = target: human ENPP1 on the cell surface (293T-ENPP1 cells, HepG2 cells) (human) (UniProt P22413); experiment: flow cytometry on HepG2 cells, APC-A against SSC-A
[2] = target: human ENPP1 on the cell surface (293T-ENPP1 cells, HepG2 cells) (human) (UniProt P22413); experiment: flow cytometry on 293T-ENPP1 cells, APC-A against SSC-A

Sequence of human ENPP1 on the cell surface (293T-ENPP1 cells, HepG2 cells) (human) (P22413 whole entry): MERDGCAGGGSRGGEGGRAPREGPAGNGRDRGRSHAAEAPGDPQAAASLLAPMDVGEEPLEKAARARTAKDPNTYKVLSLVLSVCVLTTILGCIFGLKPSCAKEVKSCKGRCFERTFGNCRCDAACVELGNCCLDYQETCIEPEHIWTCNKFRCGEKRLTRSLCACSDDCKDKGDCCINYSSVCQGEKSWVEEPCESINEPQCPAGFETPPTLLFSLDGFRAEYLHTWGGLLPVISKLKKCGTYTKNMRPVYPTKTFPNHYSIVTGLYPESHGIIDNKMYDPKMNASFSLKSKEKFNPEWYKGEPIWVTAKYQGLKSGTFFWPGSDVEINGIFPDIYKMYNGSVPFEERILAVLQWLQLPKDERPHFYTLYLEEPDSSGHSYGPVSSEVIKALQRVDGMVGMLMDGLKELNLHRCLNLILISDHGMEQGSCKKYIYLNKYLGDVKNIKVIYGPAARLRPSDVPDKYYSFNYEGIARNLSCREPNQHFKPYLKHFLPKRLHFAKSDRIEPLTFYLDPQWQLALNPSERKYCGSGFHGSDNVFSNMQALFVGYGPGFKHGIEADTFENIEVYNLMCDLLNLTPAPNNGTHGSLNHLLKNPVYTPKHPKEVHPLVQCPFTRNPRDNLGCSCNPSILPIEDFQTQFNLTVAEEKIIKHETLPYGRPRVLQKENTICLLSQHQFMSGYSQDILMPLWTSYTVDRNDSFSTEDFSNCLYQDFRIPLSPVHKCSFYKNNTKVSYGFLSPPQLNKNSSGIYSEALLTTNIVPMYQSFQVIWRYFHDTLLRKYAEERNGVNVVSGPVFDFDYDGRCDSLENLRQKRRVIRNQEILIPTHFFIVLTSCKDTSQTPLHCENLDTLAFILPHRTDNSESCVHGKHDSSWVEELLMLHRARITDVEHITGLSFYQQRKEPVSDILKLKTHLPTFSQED

- percent of cells in the APC-positive gate [1]: 0.4%
- percent of cells in the APC-positive gate [2]: 0.4%
Substance: Isotype Ctrl (antibody)
